This data set deals with the molecule itself. As to the kind of experiment: NMR.

B1: Tyr-705-phosphorylated STAT3 (127-711)-His6 (domain or fragment, human, UniProt P40763 127-711, looked up)
chain: GQANHPTAAVVTEKQQMLEQHLQDVRKRVQDLEQKMKVVENLQDDFDFNYKTLKSQGDMQDLNGNNQSVTRQKMQQLEQMLTALDQMRRSIVSELAGLLSAMEYVQKTLTDEELADWKRRQQIACIGGPPNICLDRLENWITSLAESQLQTRQQIKKLEELQQKVSYKGDPIVQHRPMLEERIVELFRNLMKSAFVVERQPCMPMHPDRPLVIKTGVQFTTKVRLLVKFPELNYQLKIKVCIDKDSGDVAALRGSRKFNILGTNTKVMNMEESNNGSLSAEFKHLTLREQRCGNGGRANCDASLIVTEELHLITFETEVYHQGLKIDLETHSLPVVVISNICQMPNAWASILWYNMLTNNPKNVNFFTKPPIGTWDQVAEVLSWQFSSTTKRGLSIEQLTTLAEKLLGPGVNYSGCQITWAKFCKENMAGKGFSFWVWLDNIIDLVKKYILALWNEGYIMGFISKERERAILSTKPPGTFLLRFSESSKEGGVTFTWVEKDISGKTQIQSVEPYTKQQLNNMSFAEIIMGYKIMDATNILVSPLVYLYPDIPKEEAFGKYCRPESQEHPEADPGSAAPYLKTKFI
modifications: phosphotyrosine at 705
Consider B1, for which the “dH (van't Hoff, monomer-dimer equilibrium, from I568 and I654)” value stood at 14.8 ± 1.1 kcal/mol; the “dH (van't Hoff, monomer-dimer equilibrium, from I653 and I711)” value was 12.8 ± 0.5 kcal/mol.

For the origin of these results see article PMC4767637 (Journal of molecular biology, 2016).
